Measured values taken from patent US20260356928 (published 2026).

Target: CRMP1 (human, UniProt Q14194)
Assay: ELISA

EC50: 69 nM
B1: NI-504.3E7 (antibody, V domains shown)
VH: EVQLVETGGGFVQPGGSLQLSCAVSGFPYSGTSFHWVRQVSGKGLEWIGRIRSKSDNYETSYTESLKGRFIVSRDDSKNMVRLHLYSLRTEDTALYYCTTGIIVVDTSYLDHWGRGTLVTVSS
VL: SYELTQPPSASVSPGQTARITCSGAALPKKYAYWYQLKSGQAPVLVIYEDTKRPSGIPERFSGSSSGTLATLTINGALVEDEADYYCYSTDSSGDVWVFGGGTKLTVL
